From patent US20140221623A1 (Ablynx, published 2014)
Positions count from the first letter of the chain named. Where “and” joins values, the source holds several entries; their conditions need not be identical. Equal values may be shown once. Values belong to the binder of their own block, whether it stands above or below them.

Assays:
IL6-R on U266 cells [1] = biological target: T1, IL6-R on U266 cells (human, UniProt P08887 20-468); assay: cell-based or functional assay
T1 sequence (looked up): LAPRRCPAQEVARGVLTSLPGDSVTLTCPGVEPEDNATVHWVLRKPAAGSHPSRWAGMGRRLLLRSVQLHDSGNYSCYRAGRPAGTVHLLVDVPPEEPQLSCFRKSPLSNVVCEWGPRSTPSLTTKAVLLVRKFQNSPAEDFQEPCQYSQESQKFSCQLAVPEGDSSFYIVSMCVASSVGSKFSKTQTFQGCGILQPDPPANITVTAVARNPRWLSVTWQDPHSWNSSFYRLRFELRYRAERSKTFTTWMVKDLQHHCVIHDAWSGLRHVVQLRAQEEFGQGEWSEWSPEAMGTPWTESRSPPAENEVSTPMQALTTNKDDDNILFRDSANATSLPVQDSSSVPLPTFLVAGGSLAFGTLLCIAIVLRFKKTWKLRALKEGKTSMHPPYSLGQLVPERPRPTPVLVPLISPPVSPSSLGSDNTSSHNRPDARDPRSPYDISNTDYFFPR

Human soluble IL6-R [2] = biological target: T2, Human soluble IL6-R (human, UniProt P08887 20-358); assay: SPR (Biacore 3000), IL6-R on CM5 chip
T2 construct: Bought soluble receptor; biotinylated in some Alphascreen assays; also called sIL6-R; hIL-6R
T2 sequence (looked up): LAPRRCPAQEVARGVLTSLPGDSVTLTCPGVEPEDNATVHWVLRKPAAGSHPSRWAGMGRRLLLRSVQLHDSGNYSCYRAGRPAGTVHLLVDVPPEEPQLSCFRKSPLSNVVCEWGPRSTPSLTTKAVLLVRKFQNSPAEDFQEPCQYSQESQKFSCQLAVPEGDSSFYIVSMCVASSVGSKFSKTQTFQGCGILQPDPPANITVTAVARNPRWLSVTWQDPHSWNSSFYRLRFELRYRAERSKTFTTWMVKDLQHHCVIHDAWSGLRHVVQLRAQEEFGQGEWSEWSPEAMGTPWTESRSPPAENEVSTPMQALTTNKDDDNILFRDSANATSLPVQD

IL6-R on U266 cells [3] = biological target: T1, IL6-R on U266 cells; assay: cell-based or functional assay; remark: listed apart in the source
Human soluble IL6-R [4] = biological target: T2, Human soluble IL6-R; assay: Alphascreen, 100 nM Nanobody; competitor Reference-Fab on beads
Human soluble IL6-R [5] = biological target: T2, Human soluble IL6-R; assay: SPR (Biacore), off-rate

B1: IL6R08 (VHH)
VHH: EVQLVESGGGLVQPGGSLRLSCVASGFSLDYYVIGWFRQAPGKEREGVSCISSSDGSTYYADSVKGRFTISRDNAKNTVYLQMNSLKPEDTAVYYCAADLLRTPEFCVDSAPYDYWGQGTQVTVSS
notes: also called PMP34A12; PMP 34 A12
IC50, TF-1 proliferation (IL6-R on U266 cells [1]): 42.9 nM | Kd (Human soluble IL6-R [2]): 10.2 nM | koff (Human soluble IL6-R [2]): 0.00197 s⁻¹ | kon (Human soluble IL6-R [2]): 194000 M⁻¹ s⁻¹ | IC50, XG-1 proliferation (IL6-R on U266 cells [3]): 36.6 nM | % binding retained in competition with Reference-Fab (Human soluble IL6-R [4]): 99%

B2: PMP 30 G11 (VHH)
VHH: B1 VHH
notes: also called PMP30G11(t)
koff (Human soluble IL6-R [5]): 0.00164 s⁻¹

B3: PMP 30 A2 (VHH)
VHH: B1 VHH with V23A, S28T, S52G, G56D, V108T
notes: also called PMP30A2(t)
koff (Human soluble IL6-R [5]): 0.00257 s⁻¹

B4: PMP 30 B6 (VHH)
VHH: B1 VHH with V23A, S28T, G47A, S49A, G56R, V79G, V108S
notes: also called PMP30B6(t)
koff (Human soluble IL6-R [5]): 0.000842 s⁻¹

B6: IL6R11 (VHH)
VHH: EVQLVESGGGLVQAGGSLRLSCAASGFTFDDYAIGWFRQAPGKEHEGVSCISSSDGSTYYADSVKGRFTISSDNAKNTVYLQMNSLKPEDTAVYYCAAERDVPARSLCGSYYWYDYRGQGTQVTVSS
notes: also called PMP35E11; PMP 35 E11
IC50, TF-1 proliferation (IL6-R on U266 cells [1]): 6.62 nM | Kd (Human soluble IL6-R [2]): 0.87 nM and 1.85 nM | koff (Human soluble IL6-R [2]): 0.00034 s⁻¹ and 0.000396 s⁻¹ and 0.000417 s⁻¹ | kon (Human soluble IL6-R [2]): 391000 M⁻¹ s⁻¹ and 215000 M⁻¹ s⁻¹ | IC50, XG-1 proliferation (IL6-R on U266 cells [3]): 5.37 nM | % binding retained in competition with Reference-Fab (Human soluble IL6-R [4]): 40% | koff (Human soluble IL6-R [5]): 0.000417 s⁻¹

B7: IL6R10 (VHH)
VHH: EVQLVESGGGLVQAGGSLRLSCAASGRTFSSYDMGWYRQAPGKEREFVAVIHWSSGSTYYADPVKGRFTISRDNAKNTVYLQMNSLKPEDTAIYYCNAFLPGPEGFHDYWGQGTQVTVSS
notes: also called PMP35C10; PMP 35 C10
IC50, TF-1 proliferation (IL6-R on U266 cells [1]): 9.15 nM | Kd (Human soluble IL6-R [2]): 1.27 nM | koff (Human soluble IL6-R [2]): 0.000526 s⁻¹ and 0.000509 s⁻¹ | kon (Human soluble IL6-R [2]): 414000 M⁻¹ s⁻¹ | IC50, XG-1 proliferation (IL6-R on U266 cells [3]): 2.55 nM | % binding retained in competition with Reference-Fab (Human soluble IL6-R [4]): 102% | koff (Human soluble IL6-R [5]): 0.000509 s⁻¹

B8: IL6R07 (VHH)
VHH: EVQLVESGGGLVQPGGSLRLSCAASGFTLDYGAIGWFRQAPGKEREGVSCISSSTGSTYYADSVKGRFTISRDNGKNTVYLQMNSLKPEDTAVYYCAADKMWSPCLVAANEEALFEYDYWGQGTQVTVSS
notes: also called PMP33A3; PMP 33 A3
IC50, TF-1 proliferation (IL6-R on U266 cells [1]): 35 nM | koff (Human soluble IL6-R [2]): 0.000242 s⁻¹ | IC50, XG-1 proliferation (IL6-R on U266 cells [3]): 50.5 nM | % binding retained in competition with Reference-Fab (Human soluble IL6-R [4]): 80% | koff (Human soluble IL6-R [5]): 0.000242 s⁻¹

B9: PMP 28 G3 (VHH)
VHH: EVQLVESGGGLVQAGGSLRLSCTASGNIFSTETMGWYRQPPGKQRDVVATITHGGTTNYADSVKGRFTISRDNRKNTVYLQMNSLKPEDTGVYYCNARSSWYSPEYWGQGTQVTVSS
koff (Human soluble IL6-R [5]): 0.00193 s⁻¹

B11: PMP 34 D2 (VHH)
VHH: EVQLVESGGGLVQPGGSLRLSCAASGFTLDYFAIGWFRQAPGKERERVSCISSSDGSTYYADSVKGRFTISRDNAKNTVYLQMNSLKPEDTAVYYCATDRSVYYCSGGAPEEYYWGQGTQVTVSS
notes: also called PMP34D2(t)
koff (Human soluble IL6-R [5]): 0.000331 s⁻¹

B15: PMP 33 G3 (VHH)
VHH: B11 VHH with D30G, R47G, T58A, I70V
notes: also called PMP33G3(t)
koff (Human soluble IL6-R [5]): 0.00119 s⁻¹

Next, values leading:

koff (Human soluble IL6-R [5]): 0.000435 s⁻¹
B5: PMP 34 C3 (VHH)
VHH: B1 VHH with Q118R
notes: also called PMP34C3(t)

koff (Human soluble IL6-R [5]): 0.002 s⁻¹
B10: PMP 34 E10 (VHH)
VHH: EVQLVESGGGLVQAGGSLRLSCAASGRTFSSYAMGWGRQAPGKEREFVATISWSGGSTYYADSVKGRFTISRDNAKNTVYLQMNSLKPEDTAVYYCAADLAEFKYSDYADYWGQGTQVTVSS

koff (Human soluble IL6-R [5]): 0.00014 s⁻¹
B12: PMP 34 G3 (VHH)
VHH: B11 VHH with F32Y, V93A

koff (Human soluble IL6-R [5]): 0.000503 s⁻¹
B13: PMP 34 E9 (VHH)
VHH: B11 VHH with F32Y, R47G, V93A, G108D
notes: also called PMP34E9(t)

koff (Human soluble IL6-R [5]): 0.00168 s⁻¹
B14: PMP 34 A5 (VHH)
VHH: B11 VHH with D30G, R47G, I70V
notes: also called PMP34A5(t)
